Test results as given in patent US20190030149.

Tests used:
[1] = target: T1, peptide CRVPGVAPTL (SEQ ID NO: 18), Example 4
T1 chain: CRVPGVAPTL

[2] = target: T2, peptide CALLPAVPSL (SEQ ID NO: 16), Example 3
T2 chain: CALLPAVPSL

[3] = target: T3, peptide CSLGEQQYSV (SEQ ID NO: 17), Example 5
T3 chain: CSLGEQQYSV

B1: Endoplasmic reticulum aminopeptidase 1 (protein)
chain: MVFLPLKWSLATMSFLLSSLLALLTVSTPSWCQSTEASPKRSDGTPFPWNKIRLPEYVIPVHYDLLIHANLTTLTFWGTTKVEITASQPTSTIILHSHHLQISRATLRKGAGERLSEEPLQVLEHPRQEQIALLAPEPLLVGLPYTVVIHYAGNLSETFHGFYKSTYRTKEGELRILASTQFEPTAARMAFPCFDEPAFKASFSIKIRREPRHLAISNMPLVKSVTVAEGLIEDHFDVTVKMSTYLVAFIISDFESVSKITKSGVKVSVYAVPDKINQADYALDAAVTLLEFYEDYFSIPYPLPKQDLAAIPDFQSGAMENWGLTTYRESALLFDAEKSSASSKLGITMTVAHELAHQWFGNLVTMEWWNDLWLNEGFAKFMEFVSVSVTHPELKVGDYFFGKCFDAMEVDALNSSHPVSTPVENPAQIREMFDDVSYDKGACILNMLREYLSADAFKSGIVQYLQKHSYKNTKNEDLWDSMASICPTDGVKGMDGFCSRSQHSSSSSHWHQEGVDVKTMMNTWTLQKGFPLITITVRGRNVHMKQEHYMKGSDGAPDTGYLWHVPLTFITSKSDMVHRFLLKTKTDVLILPEEVEWIKFNVGMNGYYIVHYEDDGWDSLTGLLKGTHTAVSSNDRASLINNAFQLVSIGKLSIEKALDLSLYLKHETEIMPVFQGLNELIPMYKLMEKRDMNEVETQFKAFLIRLLRDLIDKQTWTDEGSVSERMLRSQLLLLACVHNYQPCVQRAEGYFRKWKESNGNLSLPVDVTLAVFAVGAQSTEGWDFLYSKYQFSLSSTEKSQIEFALCRTQNKEKLQWLLDESFKGDKIKTQEFPQILTLIGRNPVGYPLAWQFLRKNWNKLVQKFELGSSSIAHMVMGTTNQFSTRTRLEEVKGFFSSLKENGSQLRCVQQTIETIEENIGWMDKNFDKIRVWLQSEKLERM
[1]
  formation rate (%) of the peptide obtained by trimming (SEQ ID NO: 7), 1 hr later: 59.1%
  formation rate (%) of the peptide obtained by trimming (SEQ ID NO: 7), 2 hr later: 57.5%
  formation rate (%) of the peptide obtained by trimming (SEQ ID NO: 7), 4 hr later: 30.1%
  formation rate (%) of the peptide obtained by trimming (SEQ ID NO: 7), 8 hr later: 7.8%
[2]
  formation rate (%) of the peptide obtained by trimming (SEQ ID NO: 5), 1 hr later: 65.5%
  formation rate (%) of the peptide obtained by trimming (SEQ ID NO: 5), 2 hr later: 50.6%
  formation rate (%) of the peptide obtained by trimming (SEQ ID NO: 5), 4 hr later: 13.5%
  formation rate (%) of the peptide obtained by trimming (SEQ ID NO: 5), 8 hr later: 0%
[3]
  formation rate (%) of the peptide obtained by trimming (SEQ ID NO: 6), 1 hr later: 77.6%
  formation rate (%) of the peptide obtained by trimming (SEQ ID NO: 6), 2 hr later: 72.8%
  formation rate (%) of the peptide obtained by trimming (SEQ ID NO: 6), 4 hr later: 46%
  formation rate (%) of the peptide obtained by trimming (SEQ ID NO: 6), 8 hr later: 7.9%
